# According to the nanobody polyreactivity screen of Harvey et al. (2022):
# Test: yeast display, Sf9 membrane polyspecificity reagent, FACS + sequencing; frameworks hold sequencing errors
# Summary of the method: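 Nanobodies came from a synthetic yeast display library in Saccharomyces cerevisiae BJ5465, induced with galactose for 36–48 hours and stained for 1 hour at 4 °C with 10% biotinylated, detergent-solubilized Sf9 membrane reagent. Cells were enriched on streptavidin microbeads and then FACS-sorted, with low and high (top ~1%) gates set on anti-HA fluorescence for expression and streptavidin fluorescence for reagent binding. Each polyreactivity label reflects the gate a clone came from. Genes were amplified by colony PCR, sequenced by MiSeq 2 × 250 and filtered by CDR length.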
row,Sequence,polyreactivity (PSR sort gate)
1,QVQLVESGGGLVQAGGSLRLSCAASGSTFGSNDMGWYRPAPGKERELVAGITWSGGSTFYADSVKGRFTISRDTAKNTVYLQMNSLKPEDTAVYYCAVSTEVNRYHAKYDYWGQGTQVTVSS,low polyreactivity
2,QVQLVESGGGLVQAGGSLRLSCAASGFIFRRYTMGWYRQAPGKERELVATITRSVNTDYADSVKGRFTISRDNAKNTVYLHMNSLKPEDTAVYYCAARKYFYFPVAYDYWGQGTQVTVSS,high polyreactivity
3,QVQLVESGGGLVQAGGSLRLSCAASGRIFRAYTMGWYRPAPGKERELVAAISTRSGRTYYADSVKGRFTISRDKEKNTVYLQMNSLKPEDTAVYYCAADRSGSAWYGYWGQGTQVTVSS,high polyreactivity
4,QVQLVESGGGLLQAGGSLSLSCAASGGTFRYYTMGWYRQAPGKERELVASISGGGRTYYADSVKGRFTISRDNAKNTVYLQMNSLKPEDTAVYYCATYTRTFGYWGYGYWGQGTQVTVSS,high polyreactivity
5,QVQLVESGGGLVQAGGSLRLSCAASGRTFFYYAMGWYRQAPGKDRELVAAISWGGGRTYYADSVKGRFTISRDNAKNTVYLQMNSLKPEETAVYYCAAGVYTGQHEYDYWGQGTQVTVSS,low polyreactivity
6,QVQLVESGGGLVQAGGSLRLSCAASGLNFYRNAMGWSRQAPGKERELVAAISASGGRTYYADSVKGRFTISRDNAKNTVYLPMNSLKPEDTAVYYCAAKSLWLSMDYWGQGTQVTVSS,high polyreactivity
7,QVQLVESGGGLVQAGGSLRLSCAASGRIFSRNAMGWYRQAPGKERELVAAITWRGGNTYYAHSVKGRFTISRDNAKNTVYLQMNSLKPEDTAVYYCAADYLRWAGRYFSWDYDYWGQGTQVTVSS,high polyreactivity
8,QVQLVESGGGLVQAGGSLRLSCAASGGTFRSNAMGWYRQAPGKERELVAASTNYADSVKGRFTISRDNAKNTVYLQMNSLKPEDTAVYYCAAGPTDSQSGMDYWGQGTQVTVSS,low polyreactivity
9,QVQLVESGGGLVQAGGSLRLSCAASGITFTRNAMGWYRQAPGKERELVAVITSSGRTKYADSVKGRFTISRDNAKNTVYLQMNSLKPEDTAVYYCAKVLFGTVPYGYWGHGTQVTVSS,high polyreactivity
10,QVQLEESGGGLVQAGGSLRLSCDASGFTFAYYAMGWYRPAPGKEREFVAAITKGGGSTNYADSVKGRFTISRDNAKNTVYLQMNSLKPEDTAVYYCNADYFVWYIGRVFSRYGYWGLGTQVTVSS,low polyreactivity
11,QVQLVESGGGLVQAGGSLRLSCAASGRTFGVNAMGWYRQAPGKEREFVAAITWSGGSTYYADSVKGRFTISRDNAKNTVYLQMISLKPEDTAVYYCAAVQWRYDGSFTGYGYWGQGTQVTVSS,low polyreactivity
12,QVQLVESGGGLVQAGGSLRLSCAASGRIFKLYARGWYRQAPGKERELVAAITSGGRTNYADSVKGRFTISRDNAKNTVYLQMNSLKPEDTAVYYCAARYYIVSLGSGYWGQGTQVTVSS,high polyreactivity
13,QVQHVESGGGLVQAGGSLLLSCAASGFIFKSNAMGWYRQAPGKERELVAAITSSGGRTYYADSVKGRFTISRDNAKNTVYLQMNSLKPEDTAVYYCAADIALGRYYYWGQGTQVTVSS,high polyreactivity
14,QVQLVESGGGLVQAGGSLRLSCAASGSIIGRYAMGWYRQAPGKERELVAAISKNGGSRYYADSVKGRFTISRDNAKNTVYLQMNSLKPEDTAVYYCNTVRYSCNYRDQEGDYWGQGTQVTVSS,high polyreactivity
15,QVQLVESGGGLVQAGGSLRLSCAASGSTFQGNAMGWYRQAPGKERELVAAISRSGGSTYADSVKGRFTMSRDNAKNTVYLQMNSLKPEDTAVYYCAAYSGVGYLWFDYWGQGTQVTVSS,low polyreactivity
16,QVQLVESGGGLVQAGGSLRLSCAASGSTFRWYTMGWYRQAPGKERELVATISSSTDITYYADSVKGRFTISRDNAKNTVYLQMNSLKPEDTAVYYCAARRVYHYRYYYWGQGTQVTVSS,high polyreactivity
17,QVQLVESGGGLGQAGGSLRLSCAASGYTFARNAMGWYRQAPGKEREMVAAINWSGTNTYYADSVKGRFTISRDNAKNTVYLQMNSLKPEDTAVYYCAKDLYFSGYEFDYWGQGTQVTVSS,low polyreactivity
18,QVQLVESGGGLVQAGGSLRIISAASGSTFRWYDMGWYRQAPGKEMELVAAITGSGGATYYADSVKGRFTIARDYAKNTVYLQKNRLKPEDTAVYYCAAVWWVPLAYDDYDYWGQGTQVTVSS,high polyreactivity
19,QVQLVDSGGGLVQAGGSLRLSCAASGRIFIVNPMGRYRQAPGKEREFVAAITSRGGITYYADSVKGRFTISRDNAKNTVYLQMNTLKPEDTAVYYFAAGYISWGSGNWGVTPYDYWGQGTQVTVSS,high polyreactivity
20,QVQLVESGGGLVQAGGSLRLSCAASGRIFYPYAMGWYRQAPGKEREFVATITASGGSTYYADSVKGRVTISRDNAKNTVYFQMNSLKPEDTAVYYCAADDPGYYQVEYWGQGTQVTVSS,high polyreactivity
21,QVQLVESGGGLVQAGGSLRLSCAASGRIFYVYAMGWYRQAPGKERELVAAITISGGSTYYADSVKGRFTISRDNAKNTVYLQMNSLKPEDTAVYYCAAGTQAHAYVVRPIEMDYWGQGTQVTVSS,low polyreactivity
